# Assay results from the Human Domainome abundance scans (Beltran et al. 2025).
# ± gives the uncertainty stated by the source.
# B1: Cytoplasmic polyadenylation element-binding protein 2, residues 513 to 575; numbered along this chain, Q7Z5Q1 (parent)
# chain: KRVEVKPYVLDDQMCDECQGARCGGKFAPFFCANVTCLQYYCEFCWANIHSRAGREFHKPLVK
# Variants of: B1
# Assay: abundance fitness (aPCA) (normalised: wild type 0, dead -1); higher = more abundant; growth selection in yeast, the domain comes from the species named
# Conditions: Homo sapiens
row,Variant,abundance fitness
1,KRVEVKPYVLDDQMCDECQGARCGGKFAPFFCANVTCLQYYCIFCWANIHSRAGREFHKPLVK [E43I],-0.539 ± 0.087
2,KRVEVKPYVLDDQMCDECQGARCGGKFAPFFCANVTCLQYYCRFCWANIHSRAGREFHKPLVK [E43R],-0.107 ± 0.036
3,KRVEVKPYVLDDQMCDECQGARCGGKFAPFFCANVTCLQYYCVFCWANIHSRAGREFHKPLVK [E43V],-0.235 ± 0.056
4,KRVEVKPYVLDDQMCDECQGARCGGKFAPFFCANVTCLQYYCEFCWCNIHSRAGREFHKPLVK [A47C],-0.318 ± 0.062
5,KRVEVKPYVLDDQMCDECQGARCGGKFAPFFCANVTCLQYYCEFCWFNIHSRAGREFHKPLVK [A47F],-0.235 ± 0.062
6,KRVEVKPYVLDDQMCDECQGARCGGKFAPFFCANVTCLQYYCEFCWINIHSRAGREFHKPLVK [A47I],-0.073 ± 0.064
7,KRVEVKPYVLDDQMCDECQGARCGGKFAPFFCANVTCLQYYCEFCWDNIHSRAGREFHKPLVK [A47D],0.102 ± 0.06
8,KRVEVKPYVLDDQMCDECQGARCGGKFAPFFCANVTCLQYYCEFCWHNIHSRAGREFHKPLVK [A47H],-0.17 ± 0.061
9,KRVEVKPYVLDDQMCDECQGARCGGKFAPFFCANVTCLQYYCEFCWENIHSRAGREFHKPLVK [A47E],-0.001 ± 0.087
10,KRVEVKPYVLDDQMCDECQGARCGGKFAPFFCANVTCLQYYCEFCHANIHSRAGREFHKPLVK [W46H],-0.328 ± 0.059
11,KRVEVKPYVLDDQMCDECQGARCGGKFAPFFCANVTCLQYYCEFCPANIHSRAGREFHKPLVK [W46P],-0.624 ± 0.09
12,KRVEVKPYVLDDQMCDECQGARCGGKFAPFFCANVTCLQYYCEFCGANIHSRAGREFHKPLVK [W46G],-0.567 ± 0.082
13,KRVEVKPYVLDDQMCDECQGARCGGKFAPFFCANVTCLQYYCEFCMANIHSRAGREFHKPLVK [W46M],-0.336 ± 0.092
14,KRVEVKPYVLDDQMCDECQGARCGGKFAPFFCANVTCLQYYCEFCKANIHSRAGREFHKPLVK [W46K],-0.829 ± 0.1
15,KRVEVKPYVLDDQMCDECQGARCGGKFAPFFCANVTCLQYYCEFCQANIHSRAGREFHKPLVK [W46Q],-0.624 ± 0.14
16,KRVEVKPYVLDDQMCDECQGARCGGKFAPFFCANVTCLQYYCEFCIANIHSRAGREFHKPLVK [W46I],-0.444 ± 0.074
17,KRVEVKPYVLDDQMCDECQGARCGGKFAPFFCANVTCLQYYCEFCNANIHSRAGREFHKPLVK [W46N],-0.33 ± 0.04
18,KRVEVKPYVLDDQMCDECQGARCGGKFAPFFCANVTCLQYYCEFCEANIHSRAGREFHKPLVK [W46E],-0.658 ± 0.17
19,KRVEVKPYVLDDQMCDECQGARCGGKFAPFFCANVTCLQYYCEFCAANIHSRAGREFHKPLVK [W46A],-0.503 ± 0.06
20,KRVEVKPYVLDDQMCDECQGARCGGKFAPFFCANVTCLQYYCEFCVANIHSRAGREFHKPLVK [W46V],-0.573 ± 0.062
21,KRVEVKPYVLDDQMCDECQGARCGGKFAPFFCANVTCLQYYCEFCYANIHSRAGREFHKPLVK [W46Y],-0.154 ± 0.052
22,KRVEVKPYVLDDQMCDECQGARCGGKFAPFFCANVTCLQYYCEFCFANIHSRAGREFHKPLVK [W46F],0.027 ± 0.052

row,Variant,abundance fitness
1,KRVEVKPYVLDDQMCDECQGARCGGKFAPFFCANVTCLQYYCEFCCANIHSRAGREFHKPLVK [W46C],-0.401 ± 0.084
2,KRVEVKPYVLDDQMCDECQGARCGGKFAPFFCANVTCLQYYCEFCRANIHSRAGREFHKPLVK [W46R],-0.571 ± 0.07
3,KRVEVKPYVLDDQMCDECQGARCGGKFAPFFCANVTCLQYYCEFCTANIHSRAGREFHKPLVK [W46T],-0.558 ± 0.052
4,KRVEVKPYVLDDQMCDECQGARCGGKFAPFFCANVTCLQYYCEFCLANIHSRAGREFHKPLVK [W46L],-0.335 ± 0.052
5,KRVEVKPYVLDDQMCDECQGARCGGKFAPFFCANVTCLQYYCEFCDANIHSRAGREFHKPLVK [W46D],-0.684 ± 0.091
6,KRVEVKPYVLDDQMCDECQGARCGGKFAPFFCANVTCLQYYCEFVWANIHSRAGREFHKPLVK [C45V],-1.32 ± 0.1
7,KRVEVKPYVLDDQMCDECQGARCGGKFAPFFCANVTCLQYYCEFSWANIHSRAGREFHKPLVK [C45S],-1.1 ± 0.094
8,KRVEVKPYVLDDQMCDECQGARCGGKFAPFFCANVTCLQYYCEFFWANIHSRAGREFHKPLVK [C45F],-1.2 ± 0.17
9,KRVEVKPYVLDDQMCDECQGARCGGKFAPFFCANVTCLQYYCEFLWANIHSRAGREFHKPLVK [C45L],-1.14 ± 0.081
10,KRVEVKPYVLDDQMCDECQGARCGGKFAPFFCANVTCLQYYCEFMWANIHSRAGREFHKPLVK [C45M],-1.24 ± 0.14
11,KRVEVKPYVLDDQMCDECQGARCGGKFAPFFCANVTCLQYYCEFRWANIHSRAGREFHKPLVK [C45R],-1.05 ± 0.066
12,KRVEVKPYVLDDQMCDECQGARCGGKFAPFFCANVTCLQYYCEFAWANIHSRAGREFHKPLVK [C45A],-0.77 ± 0.078
13,KRVEVKPYVLDDQMCDECQGARCGGKFAPFFCANVTCLQYYCEFHWANIHSRAGREFHKPLVK [C45H],-0.733 ± 0.1
14,KRVEVKPYVLDDQMCDECQGARCGGKFAPFFCANVTCLQYYCEFPWANIHSRAGREFHKPLVK [C45P],-0.932 ± 0.1
15,KRVEVKPYVLDDQMCDECQGARCGGKFAPFFCANVTCLQYYCEFQWANIHSRAGREFHKPLVK [C45Q],-0.994 ± 0.14
16,KRVEVKPYVLDDQMCDECQGARCGGKFAPFFCANVTCLQYYCEFTWANIHSRAGREFHKPLVK [C45T],-1.01 ± 0.099
17,KRVEVKPYVLDDQMCDECQGARCGGKFAPFFCANVTCLQYYCEFYWANIHSRAGREFHKPLVK [C45Y],-0.917 ± 0.085
18,KRVEVKPYVLDDQMCDECQGARCGGKFAPFFCANVTCLQYYCEFWWANIHSRAGREFHKPLVK [C45W],-1.04 ± 0.11
19,KRVEVKPYVLDDQMCDECQGARCGGKFAPFFCANVTCLQYYCEFKWANIHSRAGREFHKPLVK [C45K],-1.11 ± 0.15
20,KRVEVKPYVLDDQMCDECQGARCGGKFAPFFCANVTCLQYYCEFEWANIHSRAGREFHKPLVK [C45E],-1.16 ± 0.14
21,KRVEVKPYVLDDQMCDECQGARCGGKFAPFFCANVTCLQYYCEFIWANIHSRAGREFHKPLVK [C45I],-1.1 ± 0.25
